Results published in patent US20230024933.

Tests used:
[1] = test system: T1, phosphoserine substrate peptide RRApSVA
T1 sequence: RRASVA

[2] = molecular target: histone γH2A.X^pY142, endogenous in primary murine fibroblast cultures (UniProt P27661)
[3] = test system: T2, phosphotyrosine substrate peptide ENDpYINASL
T2 sequence: ENDYINASL

Row | Substance | serine phosphatase activity (dephosphorylation assay) [1] | γH2A.X^pY142 foci per nucleus after NCS exposure [2] | activity to dephosphorylate peptide ENDpYINASL [3]
1 | EYA1 isoform C (human splice variant EYA1C, exon 10 skipped) | dephosphorylation assays using the synthetic serine phosphatase substrate RRApSVA demonstrated superior serine phosphatase activity |  | 
2 | mutant EYA1C to which exon 10 had been added (EYA1C::e10) |  | EYA1C containing exon 10 (EYA1C::e10) phenocopied EYA1A with regard to premature γH2A.X^pY142 dephosphorylation | overexpression of EYA1C::e10 phenocopied dephosphorylating efficacy and fibroblast accumulation of EYA1A
